Test results as given in patent US20170275357A1.

Target: PDGFRα/PDGFRβ
Assay: cell-based or functional assay

% Inhibition of PDGFC-induced NHLF proliferation: 70% | % Inhibition of PDGFD-induced NHLF proliferation: 100%
B1: α/βVCV2 IgG1.1 (bispecific antibody)
heavy: EVQLVESGGGLVKPGGSLKLSCAASGFAFSSYAMSWVRQSPEKRLEWVATISSGGHYTFYPDSVKGRFTISRDNAKNTLYLQMSSLRSEDTAIYYCARRYYALDYWGQGTSVTVSSASTKGPSVFPLAPSSKSTSGGTAALGCLVKDYFPEPVTVSWNSGALTSGVHTFPAVLQSSGLYSLSSVVTVPSSSLGTQTYICNVNHKPSNTKVDKKVEPKSCGGGGSGGGGSEVQLQQSGPELVKTGASVKISCKASGYSFINHYMNWVKQSRGKSLEWIGYVSCYNGATGYNQKFKDKATFTVDTSSSTAYMQFNNLTSEDSAVYYCARRGFMEAMDYWGQGTSVTVSSEPKSSDKTHTCPPCPAPEAEGAPSVFLFPPKPKDTLMISRTPEVTCVVVDVSHEDPEVKFNWYVDGVEVHNAKTKPREEQYNSTYRVVSVLTVLHQDWLNGKEYKCKVSNKALPSSIEKTISKAKGQPREPQVYTLPPSRDELTKNQVSLTCLVKGFYPSDIAVEWESNGQPENNYKTTPPVLDSDGSFFLYSKLTVDKSRWQQGNVFSCSVMHEALHNHYTQKSLSLSPGK
light: DIVMTQSQKFMSTSLGDRVSVSCKASQNVLTNVAWYQQKPGQSPKTLIYSASYRYSGVPDRFTGSGSGTDFTLTISIVQSEDLAEYFCQQYNIYPWTFGGGTKLEIKRTVAAPSVFIFPPSDEQLKSGTASVVCLLNNFYPREAKVQWKVDNALQSGNSQESVTEQDSKDSTYSLSSTLTLSKADYEKHKVYACEVTHQGLSSPVTKSFNRGECGGGGSGGGGSDIVMTQSPFSLTVTVGEKVTMSCKSSQSLLNSRTRKNYLAWYQQKPGQSPKLLIYWASTRESGVPDRFTGSGSGTDFTLTISSVQAEDLAVYYCKQSYNLYTFGGGTKLEIK
